Test results from patent publication US20230050380A1 (CHIOME BIOSCIENCE, published 2023).

T1: full-length hCDCP1 with N-terminal c-Myc tag (expression vector GS01), on Ba/F3-hCDCP1 cells or … (human, UniProt Q9H5V8 30-836)
T1 construct: also called human CDCP1; hCDCP1 forced expression cells
T1 sequence: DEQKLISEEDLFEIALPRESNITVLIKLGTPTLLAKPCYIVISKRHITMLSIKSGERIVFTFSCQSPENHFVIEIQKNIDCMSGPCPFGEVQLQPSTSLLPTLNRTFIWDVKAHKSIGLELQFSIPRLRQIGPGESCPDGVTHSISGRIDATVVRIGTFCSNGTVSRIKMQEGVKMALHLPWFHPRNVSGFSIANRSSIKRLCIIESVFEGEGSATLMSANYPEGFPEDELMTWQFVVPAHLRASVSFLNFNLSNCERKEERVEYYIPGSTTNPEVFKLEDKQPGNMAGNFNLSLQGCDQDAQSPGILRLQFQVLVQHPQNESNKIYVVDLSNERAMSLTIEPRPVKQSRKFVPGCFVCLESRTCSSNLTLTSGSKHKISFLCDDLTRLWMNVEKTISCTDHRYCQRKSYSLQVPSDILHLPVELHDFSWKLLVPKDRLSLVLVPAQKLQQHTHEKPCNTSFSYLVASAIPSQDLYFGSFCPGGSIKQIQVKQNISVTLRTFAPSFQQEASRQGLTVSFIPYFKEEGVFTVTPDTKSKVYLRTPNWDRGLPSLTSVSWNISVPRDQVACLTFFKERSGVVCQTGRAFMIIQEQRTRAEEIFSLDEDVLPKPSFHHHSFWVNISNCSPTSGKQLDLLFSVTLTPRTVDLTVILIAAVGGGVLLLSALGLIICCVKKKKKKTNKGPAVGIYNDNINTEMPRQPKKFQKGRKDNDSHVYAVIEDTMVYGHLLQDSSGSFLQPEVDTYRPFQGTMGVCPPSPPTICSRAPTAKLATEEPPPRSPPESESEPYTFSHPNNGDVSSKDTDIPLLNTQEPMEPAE

T2: crab-eating macaque CDCP1 with N-terminal c-Myc tag (expression vector GS02), on crab-eating macaque … (crab-eating macaque (Macaca …, UniProt Q9H5V8 30-836 (human entry)))
T2 chain: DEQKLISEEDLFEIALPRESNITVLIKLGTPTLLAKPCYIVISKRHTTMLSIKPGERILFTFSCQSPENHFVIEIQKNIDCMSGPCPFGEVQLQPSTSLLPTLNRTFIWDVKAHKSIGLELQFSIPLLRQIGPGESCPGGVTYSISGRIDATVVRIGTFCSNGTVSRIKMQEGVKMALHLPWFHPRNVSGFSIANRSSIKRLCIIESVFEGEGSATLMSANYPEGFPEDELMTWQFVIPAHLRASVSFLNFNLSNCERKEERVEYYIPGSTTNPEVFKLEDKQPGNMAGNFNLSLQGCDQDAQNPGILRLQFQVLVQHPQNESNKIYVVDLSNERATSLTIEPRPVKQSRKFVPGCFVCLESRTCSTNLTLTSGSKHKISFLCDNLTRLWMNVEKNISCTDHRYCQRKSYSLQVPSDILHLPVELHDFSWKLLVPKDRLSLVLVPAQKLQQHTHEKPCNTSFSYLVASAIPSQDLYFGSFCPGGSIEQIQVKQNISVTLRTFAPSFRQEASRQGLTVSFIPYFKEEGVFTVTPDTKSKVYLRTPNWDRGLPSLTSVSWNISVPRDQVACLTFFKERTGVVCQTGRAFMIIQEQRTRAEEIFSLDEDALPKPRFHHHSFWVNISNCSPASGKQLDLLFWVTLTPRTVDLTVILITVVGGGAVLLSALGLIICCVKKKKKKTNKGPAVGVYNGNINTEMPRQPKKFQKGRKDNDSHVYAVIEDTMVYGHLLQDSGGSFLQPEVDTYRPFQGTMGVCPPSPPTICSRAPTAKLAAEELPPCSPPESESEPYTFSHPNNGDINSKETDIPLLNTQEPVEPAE

T3: hCDCP1 expressed by PC3 cells and other human cancer cell lines (endogenous) (human, UniProt Q9H5V8 30-836)
T3 construct: Endogenous protein on cell lines; PC3 is said to express also the cleaved form; also called human CDCP1
T3 sequence: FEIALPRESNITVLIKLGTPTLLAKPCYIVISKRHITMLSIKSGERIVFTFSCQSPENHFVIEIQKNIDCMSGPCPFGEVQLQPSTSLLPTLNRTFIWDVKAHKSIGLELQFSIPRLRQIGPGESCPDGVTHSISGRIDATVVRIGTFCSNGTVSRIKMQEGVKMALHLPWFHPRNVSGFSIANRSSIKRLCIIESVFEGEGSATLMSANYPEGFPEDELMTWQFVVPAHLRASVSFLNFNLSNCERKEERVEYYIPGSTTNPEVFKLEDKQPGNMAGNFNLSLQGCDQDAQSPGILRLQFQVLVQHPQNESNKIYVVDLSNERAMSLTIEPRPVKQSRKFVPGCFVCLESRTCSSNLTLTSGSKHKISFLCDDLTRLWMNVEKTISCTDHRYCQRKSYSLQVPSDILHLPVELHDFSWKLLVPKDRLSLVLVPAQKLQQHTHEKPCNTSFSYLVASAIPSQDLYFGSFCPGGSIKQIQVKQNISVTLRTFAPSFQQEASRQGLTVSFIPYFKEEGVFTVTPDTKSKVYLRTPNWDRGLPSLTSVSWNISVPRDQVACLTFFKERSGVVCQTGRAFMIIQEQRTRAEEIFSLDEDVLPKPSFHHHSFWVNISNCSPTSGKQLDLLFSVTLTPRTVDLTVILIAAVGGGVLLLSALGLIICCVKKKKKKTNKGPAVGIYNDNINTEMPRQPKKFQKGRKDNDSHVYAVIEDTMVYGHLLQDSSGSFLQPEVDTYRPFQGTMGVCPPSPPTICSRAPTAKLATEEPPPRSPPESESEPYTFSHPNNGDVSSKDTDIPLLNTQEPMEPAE


Tests used:
[1] = target: T1, full-length hCDCP1 with N-terminal …; experiment: flow cytometry on Ba/F3-hCDCP1 cells
[2] = target: T2, crab-eating macaque CDCP1 with …; experiment: flow cytometry on crab-eating macaque CDCP1-expressing CHO-K1 cells
Source text: The hCDCP1-expressing CHO-K1 cells and the crab-eating macaque CDCP1-expressing CHO-K1 cells were exfoliated and dispersed using 0.25% trypsin/EDTA (Nacalai Tesque, Inc.), and were then reacted with various concentrations of individual mouse-human chimeric antibodies, namely, mh12A041HCori/LCori, mh14A025HCori/LCori, mh14A043HCori/LCori, mh14A055, mh14A063HCori/LCori, and mh14A091. Thereafter, the binding property of the antibodies was observed by flow cytometry (FIG. 9). As a result, these 6 antibodies all reacted with the crab-eating macaque CDCP1, and in particular, the 5 antibodies other than mh14A055 reacted with both the human CDCP1 and the crab-eating macaque CDCP1 at the same levels.

[3] = target: T3, hCDCP1 expressed by PC3 cells and other …; experiment: cancer cells that express hCDCP1; method not given

binding result [1] | binding result [2] | binding result [3] | Binder
binds | binds |  | mh14A063HCori/LCori (antibody, human IgG1, kappa, V domains shown, mouse-human chimeric antibody, human IgG1/kappa constant regions; also called mh14A063HCori/LCori-biotin (biotinylated form)) VH: EVQLQESGGGLVQPGGSLKLSCAASGFTFSSYTMSWVRQTPEKRLEWVAYISNGGGSTYYPDTVKGRFTISRDNAKNTLYLQMSSLKSEDTAMYYCARYDLGFAYWGQGTLVTVSS VL: NIVLTQSPASLAVSLGQRATISCRASESVDSYGNSFMHWYQQKPGQPPKLLIFLASNLESGVPARFSGSGSRTDFTLTIDPVEADDAATYYCQQNNEDPWTFGGGTNLEIKR
binds | binds |  | mh14A025HCori/LCori (antibody, human IgG1, kappa, V domains shown, mouse-human chimeric antibody, human IgG1/kappa constant regions; also called mh14A025HCori/LCori-biotin (biotinylated form)) VH: EVQLQESGAELVRPGALVKLSCKASGFNIKDYYMHWVKQRPEQGLEWIGWIDPENGNTIYDPKFQGKASITADTSSNTAYLQLSSLTSEDTAVYYCGGLLYAMDYWGQGTSVTVSS VL: DIQMTQTTSSLSASLGDRVTISCRASQDISNYLNWYQQKPDGTVKLLIYFTSRLHSGVPSRFSGSGSGTDYSLTISNLEQEDIATYFCQQGNTLPRTFGGGTKLEIRR
binds | binds |  | mh14A043HCori/LCori (antibody, human IgG1, kappa, V domains shown, mouse-human chimeric antibody, human IgG1/kappa constant regions; also called mh14A043HCori/LCori-biotin (biotinylated form)) VH: EVQLQESGAELVRPGALVKLSCKASGFNIKDYYMNWVKQRPEQGLEWIGWIDPENGNTIYDPKFQGKASITADTSSNTAYLQLSSLTSEDTAVYYCYGSSYRFTYWGQGTLVTVSS VL: QIVLIQSPALMSASPGEKVTMTCSASSSVSYMYWYQQKPRSSPKPWIYLTSNLASGVPARFSGSGSGTSYSLTISSMEAEDAATYYCQQWSSNPFTFGSGTKLEIKR
 |  | binds | 25A11 antibody (antibody, human IgG1, kappa, V domains shown, also called 25A11 biotin; 25A11-biotin (biotinylated form)) VH: QVQLQQPGAELVKPGASVKMSCKASGYTFTSYYMYWVKQRPGQGLEWIGEINPSHGGTNFNEKFKNKATLTVDKSSSTVYMQLSSLTSEDSAVYYCTRGGNYPYFAMDYWGQGTSVTVSS VL: DIQMTQTTSSLSASLGDRVTISCRASQDISNYLNWYQQKPDGTVKLLIYYTSRLHSGVPSRFSGSGSGTDYSLTISNLEQEDIATYFCQQGNTLPWTFGGGTKLEIKR
 |  | binds | CUB4 antibody (antibody, human IgG1, kappa, V domains shown, also called CUB4-biotin (biotinylated form)) VH: EVQLVESGGGLVQPGGSLRLSCAASGFTFNSYGMSWVRQAPGKGLEWVATISSGGSYKYYVDSVKGRFTISRDNAKNSLYLQMNSLRAEDTAVYYCARHPDYDGVWFAYWGQGTLVTVSS VL: EIVLTQSPATLSLSPGERATMSCSVSSSVFYLHWYQQKPGQAPRLWIYDTSKLASGIPARFSGSGSGTDFTLTISSLEPEDFAVYYCQQWNSNPPTFGGGTKVEIKR
binds |  |  | h14A063VH3/VL1 (antibody, human IgG1, kappa, humanized antibody, human IgG1/kappa constant regions) heavy: not shown light: EIVLTQSPATLSLSPGERATLSCRASESVDSYGNSFMHWYQQKPGQAPRLLIFLASNLESGVPARFSGSGSRTDFTLTISSLEPEDFAVYYCQQNNEDPWTFGGGTKVEIKRTVAAPSVFIFPPSDEQLKSGTASVVCLLNNFYPREAKVQWKVDNALQSGNSQESVTEQDSKDSTYSLSSTLTLSKADYEKHKVYACEVTHQGLSSPVTKSFNRGEC
binds |  |  | h14A063VH3/VL2 (antibody, human IgG1, kappa, humanized antibody, human IgG1/kappa constant regions) heavy: not shown light: EIVLTQSPATLSLSPGERATLSCRASESVDSYGNSFMHWYQQKPGQAPRLLIFLASNLESGVPARFSGSGSGTDFTLTISSLEPEDFAVYYCQQNNEDPWTFGGGTKVEIKRTVAAPSVFIFPPSDEQLKSGTASVVCLLNNFYPREAKVQWKVDNALQSGNSQESVTEQDSKDSTYSLSSTLTLSKADYEKHKVYACEVTHQGLSSPVTKSFNRGEC
binds |  |  | h14A063VH4/VL2 (antibody, human IgG1, kappa, V domains shown, humanized antibody, human IgG1/kappa constant regions; also called h14A063VH4/VL2-biotin (biotinylated form)) VH: EVQLVESGGGLVQPGGSLRLSCAASGFTFSSYTMSWVRQAPEKRLEWVAYISSGGGSTYYPDTVKGRFTISRDNAKNSLYLQMNSLRAEDTAVYYCARYDLGFAYWGQGTLVTVSS VL: EIVLTQSPATLSLSPGERATLSCRASESVDSYGNSFMHWYQQKPGQAPRLLIFLASNLESGVPARFSGSGSGTDFTLTISSLEPEDFAVYYCQQNNEDPWTFGGGTKVEIKR
binds |  |  | h14A063VH4/VL1 (antibody, human IgG1, kappa, V domains shown, humanized antibody, human IgG1/kappa constant regions; also called h14A063VH4/VL1-biotin (biotinylated form)) VH: EVQLVESGGGLVQPGGSLRLSCAASGFTFSSYTMSWVRQAPEKRLEWVAYISSGGGSTYYPDTVKGRFTISRDNAKNSLYLQMNSLRAEDTAVYYCARYDLGFAYWGQGTLVTVSS VL: EIVLTQSPATLSLSPGERATLSCRASESVDSYGNSFMHWYQQKPGQAPRLLIFLASNLESGVPARFSGSGSRTDFTLTISSLEPEDFAVYYCQQNNEDPWTFGGGTKVEIKR
binds | binds |  | mh12A041HCori/LCori (antibody, human IgG1, kappa, V domains shown, mouse-human chimeric antibody, human IgG1/kappa constant regions; also called mh12A041HCori/LCori-biotin (biotinylated form)) VH: EVQLQESGPGILQPSQTLSLTCSFSGFSLSTSGMGVSWIRQPSGKGLEWLAHIYWDDDKRYNPSLKSRLTISKDTSSNQVFLKITSVDTADTATYYCARSGSYYGSSLDCWGQGTTLTVSS VL: DVLMTQTPLSLPVSLGDQASISCRSSQSIVHSNGNTYLEWYLQKPGQSPKLLIYKVSNRFSGVPDRFSGSGSGTDFTLKISRVEAEDLGVYYCFQGSHVPWTFGGGTKLEIKR
